Measured values: the supplement of paper PMC10598134
± gives the standard deviation.

Assay: collision cross section of modified peptide (TIMS, N2, iRT-aligned); higher = larger / more extended gas-phase ion
Outline: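 Synthetic peptide pools (~100 fmol/µL in 2% acetonitrile/0.1% formic acid, iRT standard spiked 1:40) were separated on a 120-min nanoflow C18 gradient at 60 °C. They were analysed on a timsTOF Pro/HT (dda-PASEF, nitrogen, ~2.4 mbar) and identified with MaxQuant. 1/K0 was calibrated with three reference ions and aligned run-wise to the median iRT peptide deviation. Collision cross section came from the Mason-Schamp equation, averaging 1–3 technical replicates of the most abundant feature per charge state.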

[1] = charge state: 2, modification: Biotin
[2] = charge state: 2, modification: Succinyl
[3] = charge state: 2, modification: hydroxyisobutyryl
[4] = charge state: 3, modification: hydroxyisobutyryl
[5] = charge state: 2, modification: Formyl
[6] = charge state: 2, modification: Acetyl (K)
[7] = charge state: 3, modification: Acetyl (K)
[8] = charge state: 2, modification: Hydroxyproline
[9] = charge state: 2, modification: GlyGly (K)
[10] = charge state: 3, modification: GlyGly (K)
[11] = charge state: 2, modification: Glutarylation
[12] = charge state: 2, modification: Citrullination (R)

Sequence: TPNLYIYSKK [_TPNLYIYSK(Biotin)K_]
- collision cross section [1]: 409.6 Å²

Sequence: LEEVTGKLQVAR [_LEEVTGK(Succinyl)LQVAR_]
- collision cross section [2]: 394.87 ± 0.77 Å²

Sequence: GEVGAGAGPGAQAGPSAKR [_GEVGAGAGPGAQAGPSAK(Succinyl)R_]
- collision cross section [2]: 417.99 ± 0.36 Å²
- collision cross section (charge state: 3, modification: Succinyl): 474.67 ± 1.5 Å²

Sequence: IVSGKDYNVTANSK [_IVSGK(hydroxyisobutyryl)DYNVTANSK_]
- collision cross section [3]: 417.55 ± 0.55 Å²
- collision cross section [4]: 466.6 ± 0.46 Å²

Sequence: DESFLGKLGGTLAR [_DESFLGK(Formyl)LGGTLAR_]
- collision cross section [5]: 408.46 ± 1.1 Å²

Sequence: FLQEFYQDDELGKK [_FLQEFYQDDELGK(Acetyl (K))K_]
- collision cross section [6]: 444.35 ± 1.6 Å²
- collision cross section [7]: 501.5 ± 0.084 Å²

Sequence: IQQELQTAKK [_IQQELQTAK(Formyl)K_]
- collision cross section [5]: 369.08 ± 0.89 Å²

Sequence: GEQGEPGAPGIRTGIQGLK [_GEQGEPGAP(Hydroxyproline)GIRTGIQGLK_]
- collision cross section [8]: 450.73 ± 0.4 Å²
- collision cross section (charge state: 3, modification: Hydroxyproline): 502.77 ± 1.3 Å²

Sequence: TVSKVDDFLANEAK [_TVSK(Trimethyl (K))VDDFLANEAK_]
- collision cross section (charge state: 2, modification: Trimethyl (K)): 424.19 ± 1.1 Å²
- collision cross section (charge state: 3, modification: Trimethyl (K)): 482.88 ± 1.6 Å²

Sequence: KYEEIDNAPEER [_K(Biotin)YEEIDNAPEER_]
- collision cross section [1]: 430.04 ± 3.1 Å²
- collision cross section (charge state: 3, modification: Biotin): 521.46 ± 0.34 Å²

Sequence: LGVATVAKGVCGACK [_LGVATVAK(Malonyl)GVCGACK_]
- collision cross section (charge state: 2, modification: Malonyl): 416.08 ± 0.71 Å²
- collision cross section (charge state: 3, modification: Malonyl): 487.74 Å²

Sequence: IINEPTAAAIAYGLDKK [_IINEPTAAAIAYGLDK(GlyGly (K))K_]
- collision cross section [9]: 510.84 ± 1.5 Å²
- collision cross section [10]: 560.44 ± 1.9 Å²

Sequence: IGAEVYHHLK [_IGAEVY(Nitro (Y))HHLK_]
- collision cross section (charge state: 2, modification: Nitro (Y)): 375.15 ± 0.55 Å²
- collision cross section (charge state: 3, modification: Nitro (Y)): 440.09 ± 1.8 Å²

Sequence: DLGKFQVATDALK [_DLGK(Formyl)FQVATDALK_]
- collision cross section [5]: 403.92 ± 0.55 Å²

Sequence: ITLSKHQNVQLPR [_ITLSK(Acetyl (K))HQNVQLPR_]
- collision cross section [6]: 436.23 ± 3.2 Å²
- collision cross section [7]: 526.67 ± 2.1 Å²

Sequence: PASGAGAGAGAGKR [_PASGAGAGAGAGK(GlyGly (K))R_]
- collision cross section [9]: 395.09 ± 1.4 Å²
- collision cross section [10]: 472.77 ± 1.1 Å²

Sequence: SEASSEFAKK [_SEASSEFAK(Gluratylation)K_]
- collision cross section [11]: 358.01 ± 0.65 Å²

Sequence: PSVSTKLISK [_PSVSTK(Gluratylation)LISK_]
- collision cross section [11]: 361.01 ± 0.71 Å²

Sequence: SLIGKVDGTSHVTGK [_SLIGKVDGTSHVT(HexNAc (ST))GK_]
- collision cross section (charge state: 3, modification: HexNAc (ST)): 501.68 ± 0.18 Å²

Sequence: HFGPVPPSQGRGR [_HFGPVPPSQGR(Methyl (R))GR_]
- collision cross section (charge state: 3, modification: Methyl (R)): 491.26 ± 0.38 Å²

Sequence: IQTKAGEATVK [_IQTK(Acetyl (K))AGEATVK_]
- collision cross section [6]: 364.34 ± 0.62 Å²

Sequence: ATVASSTQKFQDLGVK [_ATVASSTQK(Methyl (K))FQDLGVK_]
- collision cross section (charge state: 2, modification: Methyl (K)): 464.26 ± 2.2 Å²
- collision cross section (charge state: 3, modification: Methyl (K)): 478.87 ± 3.4 Å²

Sequence: GGGYGGDRGGYGGDR [_GGGYGGDR(Citrullination (R))GGYGGDR_]
- collision cross section [12]: 373.62 ± 7.7 Å²

Sequence: AGQKLIDVNHYAK [_AGQK(Crotonyl)LIDVNHYAK_]
- collision cross section (charge state: 2, modification: Crotonyl): 434.02 ± 0.33 Å²
- collision cross section (charge state: 3, modification: Crotonyl): 485.3 ± 1.3 Å²

Sequence: TGGTQTDLFTCGKCK [_TGGTQTDLFTCGK(Succinyl)CK_]
- collision cross section [2]: 437.09 Å²

Sequence: VGLQVVAVKAPGFGDNR [_VGLQVVAVK(hydroxyisobutyryl)APGFGDNR_]
- collision cross section [3]: 453.58 ± 0.89 Å²
- collision cross section [4]: 502.92 ± 2.8 Å²

Sequence: SRGGGGNFGPGPGSNFR [_SR(Citrullination (R))GGGGNFGPGPGSNFR_]
- collision cross section (charge state: 3, modification: Citrullination (R)): 461.31 ± 6.4 Å²

Sequence: GGGDRGGFGPGK [_GGGDR(Citrullination (R))GGFGPGK_]
- collision cross section [12]: 334.18 ± 0.75 Å²

Sequence: ISSNFSSIIAEKLR [_ISSNFSSIIAEK(GlyGly (K))LR_]
- collision cross section [9]: 443.53 ± 6.7 Å²
- collision cross section [10]: 502.71 ± 1.1 Å²

Sequence: GDNGSVGEPGPK [_GDNGSVGEP(Hydroxyproline)GPK_]
- collision cross section [8]: 344.87 ± 1.1 Å²
